Data: patent US20070141048A1 (SYMPHOGEN A S, published 2007)
Changes are numbered by the printed parent chain.

T1: Ovalbumin (UniProt P01012 2-386)
T1 sequence: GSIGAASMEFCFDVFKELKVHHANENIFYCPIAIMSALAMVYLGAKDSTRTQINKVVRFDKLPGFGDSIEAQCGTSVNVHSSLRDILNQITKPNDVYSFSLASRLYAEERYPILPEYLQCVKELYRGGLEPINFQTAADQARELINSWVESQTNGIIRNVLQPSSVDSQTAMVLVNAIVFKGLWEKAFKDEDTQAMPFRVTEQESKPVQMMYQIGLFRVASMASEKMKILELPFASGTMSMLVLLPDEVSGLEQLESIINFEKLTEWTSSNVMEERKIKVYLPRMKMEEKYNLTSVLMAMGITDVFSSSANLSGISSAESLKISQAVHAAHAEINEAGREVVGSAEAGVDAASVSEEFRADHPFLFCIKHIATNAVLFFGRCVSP

B1: g060f03 (Fab, V domains shown)
VH: QVQLVQSGGGLVKPGGSLRLSCAASGFTFSNAWMSWVRQAPGKGLEWVGHVKSMTDGGTTDYAAPVKGRFTISRDDSENTLYLQMNSLKTDDTAVYYCTTHDYWGQGTLVTVS
VL: EIVMTQSPPFLSASVGDRVTITCRASQGLSTYLAWYQVKPGKAPKLLIYAASTLQSGVPSRFSGSGSGTEFTLTINSLQPEDFATYYCQQLDTYPLTLGGGTKVEIK
B2: g060a11 (Fab, V domains shown)
VH: KVQLVESGGGLVKPGGSLRLSCVVSGFPLNRYTMNWVRQAPGKGLEWLSSISSTSSYIYYADSVKGRFTISRDNAKNSLFLQMNSLRADDTALYFCASGNTHDYWGQGTLVTVS
VL: DVVMTQSPSSLSASVGDRVTITCRASQSININLNWFQQKPGKAPNLLIYSASTLQTGVPSRFSGSGSGTEFTLTISSLQPEDFATYYCQQIYSHVRTFGQGTKVEIK
B3: g060c12 (Fab, V domains shown)
VH: B2 VH with E6Q, T33I, A40T, V64A, D89E, A92G, F95Y
VL: B2 VL with D1E, V2I, M4L, I21T, A25T, N30F, N45K, H94Q
B4: g060f11 (Fab, V domains shown)
VH: EVQLVQSGGGVVRPGGSLRLSCAGSGFTFDEYAMSWVRQAPGKGLEWVAFINWNGDSTYYADSVKGRFTVSRTNAKNSLYLQMNSLRAEDTAFYYCARDPRTKLGMSYFDYWGQGTLVTVS
VL: EIVMTQSPSSLSASVGDRVTITCRASQTISNHLNWYQQKPGRAPKLLIYVGSSLQSGVPSRFSGSGSGTDFTLTISGLQPEDFATYYCQQSYSPSYTFGQGTKVEIK
B5: g060g12 (Fab, V domains shown)
VH: B4 VH with E46K, T73S, Y95C
VL: B4 VL with E1D, V3Q, Q55R
B6: g060b09 (Fab, V domains shown)
VH: QVQLQESGPTLVKPTQTLTLTCSFSGFSLGTTGVNVGWIRQPPGKALEWLALISWDGGKHYSPSLNSRITLTKDASREQVVVPTMTNMDPADTGRYYCARIVGTHGFDYWGQGTLVTVS
VL: EIVLTQSPSFLSASVGDRVTITCRASQGIGNFLAWYQQKPGKAPKLLISGASTLQSWVPSRFSGRGSGTEFTLTISSLQPEDFATYYCQQLNRYPPYTFGQGTKLEIK
B7: g060f10 (Fab, V domains shown)
VH: B6 VH with Q3T, Q5K, S23T, D56G, P83L, T86A, A91V
VL: B6 VL with L4M
B8: g060a02 (Fab, V domains shown)
VH: QVQLQQSGGGLVKPGGSLRLSCAASGFTFSSYSMNWVRQAPGKGLEWVSSISSSSSYIYYADSVKGRFTISRDNAKNSLYLQMNSLRAEDTAVYYCARRPGWAATRAAGAFDIWGQGTMVTVS
VL: EIVLTQSPSSLSASVGDRVTITCRASQGISNYLAWYQQKPGKVPKLLIYAASTLQSGVPSRFSGSGSGTDFTLTISSLQPEDVATYYCQKYNSAPYTFGQGTKLEIK
B9: g060c07 (Fab, V domains shown)
VH: KVQLVQSGAEVKKPGESLKISCQASGYGFTVYWIGWVRQPPGKGLEWLGIIYPGDSDTRYNPSFQGQVTISADKSVSTTYLQWSSLKASDTAIYYCARHLDSYDVFTGYNLGGYMDVWGKGTLVTVS
VL: ETTLTQSPGTLSLSPGERATLSCRASQSVSTNYLAWYRQKPGQAPRLLIHGASSRATGIPDRFSGSGSGTDFTLTISRLEPEDFAVYFCQQYGSSPQTFGQGTRLEIK
B10: g060d11 (Fab, V domains shown)
VH: B9 VH
VL: B9 VL
B11: g060g02 (Fab, V domains shown)
VH: B9 VH with K1E, P40L, L123M
VL: B9 VL with E1D, T2I, T3Q
B12: g060a09 (Fab, V domains shown)
VH: GRAQVQLQESGPEVKKPGASVKVSCKASGYTFNSYGIAWVRQVPGQGLEWMGWISPYSGHTNYAEKVQGRVTMTTDTATSTACMELTSLRSDDTAVYFCARDYSSPYHFDYWGQGTWSPSR
VL: LADVVMTQSPSSLSASVGDRVTISCRASQPISTYLNWYQQKPGKAPKILIFGASRLQSGVPSRFSGSGSGTDFSLTITSLQPEDFATYICQQSKSPPYNFGRGTKLEIK
B13: g060g03 (Fab, V domains shown)
VH: EVQLVQSGPEVKKPGASVRVSCKASGYSLKNYGIHWVRQAPGQGLEWMGWISADNGDTTTALNLRGRVSMTTDTSTNTVYMEVKSLRSDDTAIYFCARDFYSGSYRSFDYWGQGTLVTVS
VL: DVVMTQSPSSLSASLGDRVTITCRASQHISNYLNWYQQKPGKAPKLLIYAASSLQSGVPSRFTGSGSGADYTLTISSLQPEDFATYYCQQSYSTSWTFGQGTTVGIK
B14: g060a01 (Fab, V domains shown)
VH: B13 VH with E1Q, L29F, Y110C
VL: B13 VL with D1E, V2I, M4L, Y49C, G105E
B15: g060g04 (Fab, V domains shown)
VH: EVQLVQSGPGLVKPSETLSLTCAVSGASVSGGDYYWSWIRQPPGKALEWIGYIYYIGSTNYNPSLKSRLSLSVDTAKSQFSLKLSSVTAADTAIYFCARARRTYSGYDSAFDYWGQGTLVTVS
VL: DVVMTQSPSSLSASVGDRVSITCRASRSVKTYLNWYQQKPGKAPKLLVYGSSSLESGVPSRFSGSGSGTDFTLTISSLQPEDFATYYCQQSFGTPYTFGQGTKLDTK
B16: g060h04 (Fab, V domains shown)
VH: B15 VH with I94T
VL: B15 VL with Y87C, T106I
B17: g060a10 (Fab, V domains shown)
VH: QITLKESGPTLVKPTQTLTLTCTLSGFSLYTTGVGVGWIRQPPGKALEWLARIYWDDDERYNPSLKSRLTITKDASKNQVVLKMTNMDPVDTATYYCARTMGVVLPFDYWGQGTLVTVS
VL: EIVLTQSPSTLSASVGDRVTITCRASQSIGSWLAWYQQKPGKAPKLLIYKASTLQSETPSRFRGSGSGTEFTLTISSLQPDDFATYYCQQFNSFSPWTFGQGTKVEFK
B18: g060f09 (Fab, V domains shown)
VH: EVQLVQSGAEVKKPGSSVKVSCKTEGGTFSTYVISWMRQAPGQGLEWMGGIVPIFNTPNYAQKFQGRVTITADRSTSTAYMELRSLGSEDTAVYYCARVVGGTRSYYALGFWGQGTTVTVS
VL: DIQLTQSPSSLSASVGDSVTITCRASQGISNFLAWYQKKPGKVPRLLIYGASTLQSGVPSRFSGSGSGTDFTLTISSLQPEDVATYYCQEYSNALIFTFGPGTKVHIK
B19: g060f01 (Fab, V domains shown)
VH: QVQLQQSGGGVVQPGRSLRLSCAASGFAFRDYAMHWVRQAPGKGLEWMGVISFNGDQIFYADSMKGRFTISRENSKNTLHLRMNSLRPEDTAVYYCARARLLFCSGGRCDMDSWGQGTLVTVS
VL: EIVMTQSPSFLSASVGDRVTITCRASQDIITYLAWYQQKPGKAPEVLIFGASTLQSGVPSRFSGSGSGTEFTLTISSLQPEDFATYYCQQIIRYPRTFGQGTRVEIK
B20: g060h10 (Fab, V domains shown)
VH: EVQLVESGAEVKKPGSSVKVSCKASGGSFSTYAITWVRQAPGQGLEWMGGIIPIFASRDYAQKFQGRVTITADESTRTVYMELSSLRSDDTAVYYCARVLGGTRLYYALNVWGQGTTVTVS
VL: DIQLTQSPSSLSASVGDRVTITCRASQGISNFLAWYQQKPGKVPELLIYGASTLQSGVPSRFSGSGSGTEFTLTINSLQPEDVATYYCQKYDSGLRFTFGPGTKVDIK
B21: g060g11 (Fab, V domains shown)
VH: B20 VH with A33I, I34F, I52N, S57T, A61P, Q62K, R87T, D89E
VL: EIVMTQSPSSLSASVGDRVTISCRASQGISNFLAWFQQKPGQVPKLLIYVASTLQSGVPSRFSGSGSGTDFSLTINGLQPEDVATYYCQRYDSGLIFTFGPGTKVEIK
B22: g060d05 (Fab, V domains shown)
VH: B20 VH with E1K, A24T, A33S, I52N, S57T, S84R, S85N, D89E, L100F, T117L
VL: B21 VL with E1D, I2V, S22T, F36H, V50G, S72T, R90K, K104R
B23: g060d04 (Fab, V domains shown)
VH: B20 VH with E1K, I70V, T117M
VL: B20 VL with I2V, Q3V, L4M, S7F, T69A
B24: g060h02 (Fab, V domains shown)
VH: B20 VH with E6Q, L83P, S84R, D89E, T117L
VL: B20 VL with D1E, Q3V, E70D, T103A

Target: T1, Ovalbumin
Assay: ELISA, periplasmic extract on coated Ovalbumin

Binder | binding result
B1 | no binding (tested: 10 µg/ml Ovalbumin coat)
B2 | no binding (tested: 10 µg/ml Ovalbumin coat)
B3 | no binding (tested: 10 µg/ml Ovalbumin coat)
B4 | no binding (tested: 10 µg/ml Ovalbumin coat)
B5 | no binding (tested: 10 µg/ml Ovalbumin coat)
B6 | no binding (tested: 10 µg/ml Ovalbumin coat)
B7 | no binding (tested: 10 µg/ml Ovalbumin coat)
B8 | no binding (tested: 10 µg/ml Ovalbumin coat)
B9 | no binding (tested: 10 µg/ml Ovalbumin coat)
B10 | no binding (tested: 10 µg/ml Ovalbumin coat)
B11 | no binding (tested: 10 µg/ml Ovalbumin coat)
B12 | no binding (tested: 10 µg/ml Ovalbumin coat)
B13 | no binding (tested: 10 µg/ml Ovalbumin coat)
B14 | no binding (tested: 10 µg/ml Ovalbumin coat)
B15 | no binding (tested: 10 µg/ml Ovalbumin coat)
B16 | no binding (tested: 10 µg/ml Ovalbumin coat)
B17 | no binding (tested: 10 µg/ml Ovalbumin coat)
B18 | no binding (tested: 10 µg/ml Ovalbumin coat)
B19 | no binding (tested: 10 µg/ml Ovalbumin coat)
B20 | no binding (tested: 10 µg/ml Ovalbumin coat)
B21 | no binding (tested: 10 µg/ml Ovalbumin coat)
B22 | no binding (tested: 10 µg/ml Ovalbumin coat)
B23 | no binding (tested: 10 µg/ml Ovalbumin coat)
B24 | no binding (tested: 10 µg/ml Ovalbumin coat)
